Laboratory results: patent US20100226906

Experiments:
[1] = molecular target: T1, synthetic gamma poly-glutamate 30mer containing both D- and L-glutamate (15 D- and 15 L-residues) (not fully specified)
T1 chain: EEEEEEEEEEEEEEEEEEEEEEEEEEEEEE

[2] = molecular target: T2, synthetic gamma poly-glutamate peptide of 30 D-glutamate residues
T2 chain: T1 chain

[3] = molecular target: T3, synthetic gamma poly-glutamate peptide of 30 L-glutamate residues
T3 chain: T1 chain

B1: recombinant poly-γ-glutamate hydrolase (PghP) of bacteriophage φNIT1 (protein)
chain: MAQTDTYPNIEALENAETVGVAYNIEVKRQNPSMIYFSPHAGGIEVGTTELIYRVVELTGGSLYLFQGLLPSGNSRLHVTSTHFDEPMAVCMLSKHTDAVSFHGYKDDYNKNTLVGGLNTELRNLIVSKLNSKGIAAEVATDRFTATDPDNIVNRCASGKGVQLEISSAQRRAFFQNNDWSKANRGNVTQEFLDYAEAIKEAEAEYYG
hydrolysis of synthetic 30mer (digestion with purified enzyme, SDS tricine PAGE) [1]: complete hydrolysis of L- and 30mers containing both D- and L-was observed
hydrolysis of synthetic 30mer (digestion with purified enzyme, SDS tricine PAGE) [2]: No hydrolysis of the D-polyglutamate was seen
hydrolysis of synthetic 30mer (digestion with purified enzyme, SDS tricine PAGE) [3]: complete hydrolysis of L- and 30mers containing both D- and L-was observed
